This note sets out measurements from patent publication US20100028347A1 (Eli Lilly, published 2010).

Where a chain is given by its changes, count along the chain named.

Assay [1] concerns the target T1, native VEGFR-1 expressed on the cell surface (human, UniProt P17948 27-1338).
T1 construct: whole, on cells; The assay field of each row names the cell line; also called PAE-VEGFR-I cells; VEGFR-I expressing porcine aorta endothelial cells
The assay can be described thus: cell-based competition: cold VEGF at 200-fold molar excess over 125I-VEGF (2 ng/ml) on PAE-VEGFR-1 cells, gamma counting. As to the method:
The binding of ¹²⁵1-VEGF to VEGFR-I on cell surface was performed using PAE-VEGFR-I expressing cells. […] Confluent cells were incubated in serum- and growth supplement-free Dulbecco's Modified Eagle Medium (DMEM)ZF-12 medium (Invitrogen, Carlsbad, Calif.) for 24 hours. Cells were rinsed once with ice-cold DMEMZF-12 medium containing 0.025 M HEPES and 1 mgZml bovine serum albumin (BSA). A serial dilution of anti-VEGFR-I antibody 18F1 or cold VEGF at the concentration of a 200-fold molar excess of labeled VEGF was added to each well in the plate and incubated at 4° C. for 1 hour. After wash, ¹²⁵I-VEGF was added at the concentration of 2 ngZml and was incubated at 4° C. for 2 hours on a platform shaker. The cells were washed three times with PBS containing 1 mgZml BSA and 0.25 mM CaCl₂, and were incubated for 5 minutes in the presence of 1% Triton X-100, 1 mgZml BSA, and 0.16% NaN₃ to remove bound VEGF. The soluble content of each well was counted in a gamma counter. The assays were performed in triplicate in at least three independent experiments and the data were analyzed using Prism GraphPad software 3.03.

In assay [2] the target is T2, mouse VEGFR-2 Fc (mouse, UniProt P35918 20-762, limits assumed).
T2 construct: not shown: Fc part; not described
T2 sequence (P35918 20-762 limits assumed): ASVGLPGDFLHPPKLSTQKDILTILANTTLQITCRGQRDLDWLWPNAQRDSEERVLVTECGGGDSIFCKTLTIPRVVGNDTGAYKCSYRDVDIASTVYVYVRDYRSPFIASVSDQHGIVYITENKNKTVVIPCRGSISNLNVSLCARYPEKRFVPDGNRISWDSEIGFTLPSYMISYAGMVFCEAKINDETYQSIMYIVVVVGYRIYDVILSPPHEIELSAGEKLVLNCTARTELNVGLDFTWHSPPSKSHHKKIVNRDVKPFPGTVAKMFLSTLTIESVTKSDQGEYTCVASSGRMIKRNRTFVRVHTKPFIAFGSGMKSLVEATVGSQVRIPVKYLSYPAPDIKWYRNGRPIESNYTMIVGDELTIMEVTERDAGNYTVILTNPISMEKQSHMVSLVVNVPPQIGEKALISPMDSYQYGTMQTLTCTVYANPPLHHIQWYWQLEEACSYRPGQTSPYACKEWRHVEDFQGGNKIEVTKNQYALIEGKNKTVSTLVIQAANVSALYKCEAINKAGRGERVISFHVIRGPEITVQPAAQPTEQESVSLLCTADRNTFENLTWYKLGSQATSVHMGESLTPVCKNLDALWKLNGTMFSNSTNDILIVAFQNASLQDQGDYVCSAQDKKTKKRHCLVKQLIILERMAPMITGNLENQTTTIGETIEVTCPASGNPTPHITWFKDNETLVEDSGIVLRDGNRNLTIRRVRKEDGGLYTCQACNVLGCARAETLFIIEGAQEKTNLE
Description: ELISA: antibody dilutions on plate coated with 1 µg/ml mouse VEGFR-2 Fc, HRP secondary, O.D. 450. As to the method: To determine the specificity of an anti-VEGFR-1 monoclonal antibody to human VEGFR-I, purified antibodies 18F1 were tested in an ELISA-based assay. One μg/ml of recombinant human VEGFR-I Fc, mouse VEGFR-I Fc, mouse VEGFR-2 Fc, or human VEGFR-2 alkaline phosphatase was coated with PBS in a 96-well microtiter plates at 4° C. over night. After wash, the receptor coated plates were blocked with PBS containing 5% Dry Milk and 0.05% Tween 20. Serial dilutions of primary antibody 18F1 to human VEGFR-I, MF1 to mouse VEGFR-I, IC1 1 to human VEGFR-2, or DClOl to mouse VEGFR-2 were incubated in the receptor-coated plates for 30 minutes. After wash secondary anti-primary HRP conjugate antibodies was incubated in the plates for 30 minutes. Plates were washed and incubated with the substrate TMB (3,3′,5,5′-tetra-methylbenzidine) for color development. The absorbance at 450 nm was read as OD values for quantification of binding activity of antibodies. Data were analyzed using a GraphPad Prism Software.
(An ELISA detects its analyte on a solid surface through an enzyme-linked reagent.)

In assay [3] the target is T1, native VEGFR-1 expressed on the cell …. Description: cell-based or functional assay.
Assay [4] concerns the target T3, soluble recombinant human VEGFR-1 alkaline phosphatase (human, UniProt P17948 27-758).
T3 construct: Made in house in stably transfected cells; also called rhuVEGFR-I AP; VEGFR-I AP; not shown: alkaline phosphatase fusion partner
Description: ELISA, purified antibody on rhuVEGFR-1 AP coated plate (given as ED50). As to the method: (§1) Specifically, hybridoma supernatants or purified antibodies were diluted in PBS with 5% FBS and 0.05% Tween 20 (ELISA buffer) and incubated in rhuVEGFR-I AP or AP coated 96-well microtiter plates for 30 minutes. Plates were washed with the ELISA buffer and incubated with goat anti-mouse IgG-horseradish peroxidase (HRP) conjugate (BioSource International, Camarillo, Calif.) for 30 minutes. TMB (3,3′,5,5′-tetra-methylbenzidine) substrate (Kierkegaard and Perry Lab, Inc., Gaithersburg, Md.) was used for color development following the manufacturer's instruction. The absorbance at 450 nanometers (nm) was read for quantification of binding activity of antibodies. For identification of the hybridomas producing anti-VEGFR-I antibodies, hybridoma supernatants were preincubated with VEGFR-I AP for 1 hour. The mixtures were incubated with the ELISA buffer in VEGF or P1GF coated 96-well microtiter plates for 1 hour. PNPP (p-nitrophenyl phosphate) substrate for AP was used for color development following the manufacturer's instruction. The absorbance at 405 nm was read for quantification of VEGFR-I binding to VEGF or P1GF. Optical density (OD) values were read on a microtiter plate reader (Molecular Devices Corp., Sunnyvale, Calif.). ED50 and IC50 of the antibodies were analyzed using GraphPad Prism 3 software (GraphPad Software, Inc., San Diego, Calif.).

Assay [5] addresses T4, recombinant extracellular domain of VEGFR-1 (UniProt P17948 27-758, limits assumed).
T4 construct: extracellular domain
The assay can be described thus: SPR, BIAcore 2000, VEGFR-1 extracellular domain immobilised at low density. As to the method: Affinities of anti-VEGFR-1 antibody clones 6F9, 13 G12, 15F1 1, 18F1 were determined by plasmon resonance technology using BIAcore 2000 (Pharmacia, Piscataway, N.J.) according to the procedures provided by the manufacturer. Kinetic analyses of the antibodies were performed by immobilization of recombinant extracellular domain of VEGFR-I onto a sensor surface at a low density. The (kₒₙ) and dissociation (kₒ_{^ff}) rates were determined using the BIAevaluation 2.1 software provided by the manufacturer.

Assay [6] has as its target T3, soluble recombinant human VEGFR-1 …. The assay can be described thus: blocking ELISA: antibody preincubated with VEGFR-1 AP, binding to PlGF coated plate. As to the method: as §1
Assay [7] has the same target. Description: blocking ELISA: antibody preincubated with VEGFR-1 AP, binding to VEGF coated plate. As to the method: as §1
For assay [8] the target is unchanged. Description: ELISA: purified antibody on plate-coated rhuVEGFR-1 AP, O.D. 450. As to the method:
as §1

Broadly, the EC50 (read off the curve) is the concentration giving half of the maximal effect. Lower therefore signals greater potency. The term EC50 denotes the concentration at which the effect is half-maximal. Usually Kd stands for a measure of binding affinity in units of concentration. What is called kon is the rate constant with which the complex forms. As a reminder, the IC50 is the concentration that gives 50% inhibition.

T4 sequence (P17948 27-758 limits assumed): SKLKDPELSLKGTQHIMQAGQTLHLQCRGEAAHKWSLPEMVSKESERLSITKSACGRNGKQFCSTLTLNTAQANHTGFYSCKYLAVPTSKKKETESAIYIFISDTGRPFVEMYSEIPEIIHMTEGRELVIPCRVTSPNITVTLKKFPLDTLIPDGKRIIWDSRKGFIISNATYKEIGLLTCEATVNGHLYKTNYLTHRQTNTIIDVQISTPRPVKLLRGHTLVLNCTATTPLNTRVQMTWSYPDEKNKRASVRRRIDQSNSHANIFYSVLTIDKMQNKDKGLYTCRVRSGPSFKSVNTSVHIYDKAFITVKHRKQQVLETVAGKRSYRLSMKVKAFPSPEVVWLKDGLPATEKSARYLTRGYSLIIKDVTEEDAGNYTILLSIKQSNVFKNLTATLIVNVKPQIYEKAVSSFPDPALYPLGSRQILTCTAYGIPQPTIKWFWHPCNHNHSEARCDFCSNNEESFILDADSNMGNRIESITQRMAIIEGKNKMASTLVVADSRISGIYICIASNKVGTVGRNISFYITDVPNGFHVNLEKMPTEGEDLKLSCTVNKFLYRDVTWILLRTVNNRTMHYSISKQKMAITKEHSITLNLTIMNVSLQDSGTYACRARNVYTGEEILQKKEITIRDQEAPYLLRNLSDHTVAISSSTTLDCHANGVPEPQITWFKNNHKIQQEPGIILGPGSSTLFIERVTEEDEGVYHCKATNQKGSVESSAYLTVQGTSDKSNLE
T3 sequence (P17948 27-758): as the sequence (P17948 27-758 limits assumed) above
T1 sequence (P17948 27-1338): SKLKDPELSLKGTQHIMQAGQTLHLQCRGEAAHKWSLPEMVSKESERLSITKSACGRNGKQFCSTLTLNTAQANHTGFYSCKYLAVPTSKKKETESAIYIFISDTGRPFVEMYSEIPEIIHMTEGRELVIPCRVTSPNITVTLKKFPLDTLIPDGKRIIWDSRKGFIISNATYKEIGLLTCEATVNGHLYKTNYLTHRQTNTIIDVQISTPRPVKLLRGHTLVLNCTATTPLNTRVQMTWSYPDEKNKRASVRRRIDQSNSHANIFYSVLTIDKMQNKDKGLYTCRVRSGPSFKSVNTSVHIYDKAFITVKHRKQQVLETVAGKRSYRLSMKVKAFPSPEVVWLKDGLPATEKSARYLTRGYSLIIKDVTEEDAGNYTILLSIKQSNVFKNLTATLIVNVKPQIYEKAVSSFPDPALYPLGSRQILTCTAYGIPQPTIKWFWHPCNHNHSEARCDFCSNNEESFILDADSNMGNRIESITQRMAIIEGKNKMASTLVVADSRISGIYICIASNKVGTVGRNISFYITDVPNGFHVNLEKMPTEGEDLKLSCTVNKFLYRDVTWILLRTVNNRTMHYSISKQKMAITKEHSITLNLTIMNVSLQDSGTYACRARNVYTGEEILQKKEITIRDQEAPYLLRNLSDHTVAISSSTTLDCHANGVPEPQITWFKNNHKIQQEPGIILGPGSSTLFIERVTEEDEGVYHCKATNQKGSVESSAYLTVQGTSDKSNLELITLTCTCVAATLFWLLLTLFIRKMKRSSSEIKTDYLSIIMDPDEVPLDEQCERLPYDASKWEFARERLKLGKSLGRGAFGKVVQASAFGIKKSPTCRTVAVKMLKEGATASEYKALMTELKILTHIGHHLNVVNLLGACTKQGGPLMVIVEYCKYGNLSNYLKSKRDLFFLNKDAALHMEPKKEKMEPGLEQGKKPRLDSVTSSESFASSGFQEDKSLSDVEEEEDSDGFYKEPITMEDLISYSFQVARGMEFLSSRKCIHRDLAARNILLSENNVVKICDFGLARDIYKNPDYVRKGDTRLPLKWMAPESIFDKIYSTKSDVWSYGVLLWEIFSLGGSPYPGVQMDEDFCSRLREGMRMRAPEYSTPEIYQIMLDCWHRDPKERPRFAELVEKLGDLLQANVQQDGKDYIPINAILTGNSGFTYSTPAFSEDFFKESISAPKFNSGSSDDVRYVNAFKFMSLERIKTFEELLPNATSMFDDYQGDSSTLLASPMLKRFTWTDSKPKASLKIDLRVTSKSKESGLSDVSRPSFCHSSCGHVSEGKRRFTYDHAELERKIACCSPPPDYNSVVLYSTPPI

B1: human VEGF165 (ligand, UniProt P15692-4 27-191, looked up)
chain: APMAEGGGQNHHEVVKFMDVYQRSYCHPIETLVDIFQEYPDEIEYIFKPSCVPLMRCGGCCNDEGLECVPTEESNITMQIMRIKPHQGQHIGEMSFLQHNKCECRPKKDRARQENPCGPCSERRKHLFVQDPQTCKCSCKNTDSRCKARQLELNERTCRCDKPRR
On to B1, for which the binding result in assay [1] is recorded as “binds”.

B2: DC101 (antibody, V domains shown)
VH: EVQLVETGGGLVQPGNSLKLSCATSGFIFSTTWMNWIRQTPGKRLEWLAQIEDKSNNYFISYSESVKGRFTISRDDSKSSVYLQMNNLKEEDTAIYYCSWKYRSNYYFDYWGQGVMVTVSS
VL: DIVLTQSPALAVSLEQRATISCKTSQNVDYYGISYLHWYQQKPGQQPKLLIYEGSNLASGIPARFSGSGSGTDFTLTIDPVEADDIVTYYCQQSKDYPYTFGAGTKLELK
With B2, in assay [2], the “EC50 (read off the curve)” value was roughly 8 ng/mL.

B3: anti-VEGFR-1 antibody clone 13G12 (antibody, human IgG1, V domains shown)
VH: QVQLVESGGGVVQPGRSLRLSCAASGFTFSSYGMHWVRQAPGKGLEWVAVIWYDGSNKYYADSVKGRFTISRDNSKNTLYLQMNSLRAEDTAVYYCARDHYGSGAHYYYYYGMDVWGQGTTVTVSS
VL: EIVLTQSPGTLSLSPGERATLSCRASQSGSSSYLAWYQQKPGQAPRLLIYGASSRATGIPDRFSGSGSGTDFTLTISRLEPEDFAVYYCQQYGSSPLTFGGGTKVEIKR
notes: Fully human antibody (gamma heavy chain, kappa light chain) from hybridomas of KM transgenic mice, purified; The light chain entry runs a few residues into the kappa constant region
B3: in assay [3], the “Inhibition of PlGF-induced DU4475 cell growth in vitro (IC50)” value (from here on “Inhibition”) was 66 nM. Further, the EC50 in assay [4] worked out at 0.3 nM. Besides, the Kd in assay [5] is 0.121 nM. Further, the kon in assay [5] came to 950000 M⁻¹ s⁻¹. For the same molecule, the half-maximal inhibitory concentration (IC50) in assay [6] worked out at 0.82 nM; in assay [7], 0.7 nM.

B4: anti-VEGFR-1 antibody clone 15F11 (antibody, V domains shown)
VH: B3 VH with Y53F, Y107S, M113L, T121S
VL: not shown
notes: Fully human antibody (gamma heavy chain, kappa light chain) from hybridomas of KM transgenic mice, purified; The light chain entry runs a few residues into the kappa constant region; also called FI1
Take B4: in assay [3], the “Inhibition” value was 44 nM. In addition, the concentration giving a half-maximal response (EC50) in assay [4] stood at 0.3 nM. Further, in assay [5], the Kd came out at 0.07 nM and the kon came out at 1.02e+06 M⁻¹ s⁻¹. In addition, in assay [6], the IC50 worked out at 0.49 nM. Besides, in assay [7], the concentration for half-maximal inhibition (IC50) worked out at 0.73 nM.

B5: anti-VEGFR-1 antibody clone 6F9 (antibody, human IgG1, V domains shown)
VH: B3 VH with L79V, Y95H, A97T, Y101F
VL: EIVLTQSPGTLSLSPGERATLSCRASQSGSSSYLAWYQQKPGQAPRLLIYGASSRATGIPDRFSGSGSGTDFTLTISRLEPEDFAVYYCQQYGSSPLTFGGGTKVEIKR
notes: Fully human antibody (gamma heavy chain, kappa light chain) from hybridomas of KM transgenic mice, purified
As for B5, the “Inhibition” value in assay [3] came to 43 nM. Moreover, the results for the EC50 in assay [4] and in assay [8] were 0.1 nM and 0.114 nM, respectively. For the same molecule, in assay [5], the Kd worked out at 0.069 nM. The on-rate constant (kon) in assay [5] amounted to 1.01e+06 M⁻¹ s⁻¹. Moreover, the half-inhibitory concentration (IC50) was found to be 0.86 nM in assay [6] and 0.82 nM in assay [7].
